The record followed here is patent US20190262431.

The target of the data set is active (phosphorylated) human Syk (Merck Millipore) (UniProt P43405).

As to “catalytically inactive human C373A Cbl-b^29-483 mutant (recombinant, GST fusion protein)”, the “in vitro poly-ubiquitination of active Syk (Western blot)” value is recorded as “did not show Syk poly-ubiquitination activity”.
